Consider 20 molecules from US20190144550A1.

Where a chain is given by its changes, count along the chain named.

Sequences and labels used below:
B1: 20E12 (antibody, V domains shown)
VH: EVNLVESGGGLVKPGGSLRLSCEASGFTFSYAWMSWVRQAPGKGLEWVGRIKSIADGGATDYAAPVRNRFTISRDDSRNTLYLEMHSLKTEDTAVYYCTTIPGNDAFDMWGQGTMVTVSS
VL: DIVLTQSPLSLSVTPGEPASISCRSSQSLLYSNGKNYLDWFLHKPGQSPQLLIYLGSNRASGVPDRFSGSGSGIDFILKISRVEAEDVGVYYCMQAQQTPITFGQGTRLEIK
B2: 32G8 (antibody, V domains shown)
VH: B1 VH with A55T, A59V, T60I, F70C, A106D, T114R
VL: B1 VL
B3: 34E7 (antibody, V domains shown)
VH: B1 VH with A55N, A64S, T80M, M115L
VL: B1 VL with S26T, Y54F, N58I
B4: 20B9 (antibody, V domains shown)
VH: QVTLKESGPVLVKPTETLTLTCTVSGFSLSNARMGVSWIRQPPGKALEWLGHIFSTDEKSYSTSLRGRITISKDTSRGLVVLTLTNMDPVDTATYYCARDSSNYEGYFDFWGPGFLVTVSS
VL: EIVMTQSPATLSVSPGERATLSCRVSQSIGANLAWYQQKFGQAPRLLIYGASTRATGIPVRFSGGGSGTEFTLTISSLQSEDFAIYSCQQYIYWPFTFGPGTTVDIK
B5: 20G5 (antibody, V domains shown)
VH: EVQLVESGGDLVKPGGSLRLSCAASGFTFTNAWMSWVRQAPGKGLEWVGRIKSKIDGGTTDYAAPVKGRFIISRDDSKNTLSLQMNSLKTEDTAMYYCTTAPGGPFDYWGQGSLVTVSS
VL: DIVLTQSPLSLPVTPGEPASISCRSSQSLLYSDRRNYLDWFLQKPGQSPHLLIYLGSYRASGVPDRFSGSGSGTDFTLKISRVEAEDVGVYYCMQALQIPITFGQGTRLEIK
B6: 26B9 (antibody, V domains shown)
VH: EVQLVESWGVLVKPGGSLRLSCAASGFIFNNAWMSWVRQAPGKGLEWIGRIKSKSDGGTTDYAAPVKDRFTISRDDSKDTLYLQMNGLKTEDTAVYFCTTAPGGPFDYWGQGTLVTVSS
VL: B5 VL with Y31H, S32R, R34G, R35F, H50Q, G56A, Y58S, G71D, I99T
B7: 11B11 (antibody, V domains shown)
VH: QVTLKESGPVLVKPTETLTLTCTVSGFSLSNAKMGVSWIRQPPGKALEWLAHIFSTDEKSIRRSLRSRLTMSKDTSKSQVVLTMTNMDPVDTATYYCVRDSSNYEGYFDYWGQGTLVTVSS
VL: EVLMTQSPATLSVSPGERATLSCRASQSVSTNFAWYQQRPGQAPRLLLFGASTRATGIPGRFSGSGSGTENILTISSLQSEDFAIYFCQQYKDWPFTFGPGSKVEIK
B8: 12B2 (antibody, V domains shown)
VH: B7 VH with A32P, K33R, A51G, T56S, I61Y, R63L, T70S, M71I, E105G
VL: EVVMTQSPATLSVSPGERATLSCRASQSVINNLAWYQQKPGQAPRLLIYGTSTRATDIPARFSGSGSGTEFTLTISSLQSEDFAVYYCQDYNNWPFTFGPGTKVDIK
B9: 42G9 (antibody, V domains shown)
VH: QVTLKESGPVLLKPTETLTLTCTVSGFSLSNPRMGVSWIRQPPGKALEWFAHIFSTDEKSLKLSLRSRLTLSKDTSKSQVVLTMTNMAPVDSATYYCARDSSNYEGYFDFWGQGTLVTVSS
VL: EVVLTQSPATLSVSPGERATLSCRASQSVRSNLAWYQQKSGQAPRLLIYGSTIRATGVPARFSGSGSGTEFTLTISSLQSEDFAVYYCQQYSDWPFTFGPGTKVDIK
B10: 46E10 (antibody, V domains shown)
VH: B7 VH with K33R, M71L, T83I, V98A
VL: B7 VL with L3V, A9P, T10N, S30T, T31S, A43S, F49Y, I58V, I85V, E105D
B11: 19A9 (antibody, V domains shown)
VH: B9 VH with K5E, L12V, P32A, L47P, K62R, A88D, S92T, F110Y
VL: EVVMTQSPATLSVSPGERATLSCRASQSVNRNLAWYQQKPGQAPRLLIFGTSTRATGIPARFSGSGSGTEFTLTIDSLQSEHSGLYYCQQYNDWPFTFGPGTKVDIK
B12: 32A10 (antibody, V domains shown)
VH: B7 VH with K33R, M71L, Y96F, V98A
VL: B7 VL with L3V, A19V, T31S, F49Y, S52T, I58L, E105D
B13: 14C11 (antibody, V domains shown)
VH: B7 VH with S30N, K33R, L50F, I61F, R63T, M71L, V98A, T115I
VL: EIVMTQSPATLSVSPGERATLSCRASQSVSNNLAWYQQKPGQAPRLLIYGASTRATGVPARFSGSDSGTEFSLTISSLQSEDFAVYFCQQYKDWPFTFGPGTKVEIK
B14: 21E7 (antibody, V domains shown)
VH: B9 VH with K5E, L12V, P32A, L47P, K62R, A88D, S92T, F110Y
VL: B11 VL with E1D, M4L, R31S, K39N, T51S, R61S, D76N, G84A, L85V
B15: 49B11 (antibody, V domains shown)
VH: B7 VH with A32V, K33R, L50F, T56S, M71L, V98A
VL: EMEVTQSPATLSVSPGERATLSCRASQNIGSDLAWYQQQSGQAPRLLISGASTRATGVPTRFSGSGSGTDFTLTITSLQSEDFAVYYCQQYNDWPFTFGPGTKVDIK
B16: 12H6 (antibody, V domains shown)
VH: B7 VH with K33R, M71L, V98A
VL: B7 VL with L3V, S28G, T31S, A43S, F49Y, I58V, E105D
B17: 30D8 (antibody, V domains shown)
VH: EVQLVESGGGLVKPGGSLRLSCEASGFTFSDAWMSWVRQAPGKGLEWVGRIKSKTDGGTTDYVVPLNGRFIISRDDSRNTLYLQLNNLKTEDTAVYYCTTVPGSYGYWGQGTLVTVSS
VL: DIVMTQSPLSLPVTPGEPASISCRSSQSLLHNKRNNYLDWFLQKPGQSPQLLIYLASNRASGVPDRFSGGGSGTDFTLKISRVEAEDVGVYYCMQAQQTPITFGQGTRLEIK
B18: 11F10 (antibody, V domains shown)
VH: QVTLKESGPVLVKPIETLTLTCTVCGFSLSNPRMGVSWIRQPPGKALEWLGHIFSSDEKSYRLFLRSRLSISKDTSKSQVVLTMTNMDPVDTATYYCARDSSDYEGYFDYWGQGTLVTVSS
VL: EIVMTQSPATLSVSPGERTTLSCRASQSVGSNLAWYQQKPGQAPRLLIYGASTRASGVPARFSGSGSGTEFTLTISSLQSEDFAVYSCQEYNNWPFTFGQGTKVEIK
B19: 21E11 (antibody, V domains shown)
VH: QVTLKESGPVLVKPTETLTLTCTVSGFSLSNVRMGVSWIRQPPGKALEWFAHIFSSDEKSIRRSLRSRLTLSKDTSKSQVVLTMTNMDPVDTATYYCARDSSNYEGYFDFWGQGTLVTVSSN
VL: B15 VL with E1D, E3V, N28S, I29V, Q39P, S40P, A43S, S49Y, T60A, Q79E
B20: 29D5 (antibody, V domains shown)
VH: QVTLKESGPVLVKPTETLTLTCTVSGFSLSNPRMGVSWLRQPPGKALEWFAHIFSTDEKSYSPSLRGRLTVSKDTSKSQVVLTLTNMDPVDTATYYCARDSSNYEGYFDYWGQGTLVTVSS
VL: KIVMTQSPATLSVSPGERATLSCRANQIVSSNLAWYQQKPGQAPRLLVFGTSTRATGIPIRFSGSGSGTEFTLTVSSLQSEDFAVYVCQQYNDWPFTFGPGTKVDIK

The first assay deals with wild-type EGFR expressed on cells (human), P00533. Nature of the assay: flow cytometry, A431 cells. The settings on record: remark: other sources report otherwise. A general note: In flow cytometry, cells or beads pass a laser one at a time.
As to B1, the % positive was 2.6% and the MFI was found to be 302.
Take B2: the MFI amounted to 271.
Turning to B3, the % positive is 1.1% and the MFI turned out to be 294.
Take B4: the MFI worked out at 558.
On the same count and under the same terms, with B5 the figure was 391.
Regarding B6, the % positive turned out to be 1.7% and the MFI was determined as 276.
On to B7, for which the MFI amounted to 589.
In turn, B8 registered a % positive of 0.8% and an MFI of 571.
Taken in the same sequence, the figures for B9 were 0.3% and 538.
With B10, the MFI is 560.
B11 displayed an MFI of 578.
Still for that read-out and setting: under B12 stands 531.
Regarding B13, the % positive was 0.8% and the MFI is 580.
Taken in the same sequence, the figures for B14 were 1.1% and 603.
On the same counts, the results for B15 are 0.8% and 599.
Taken in the same sequence, the figures for B16 were 0.8% and 569.
For B17, the % positive turned out to be 1.3% and the MFI turned out to be 269.
Taken in the same sequence, the figures for B18 were 1.1% and 582.
Consider B19, for which the MFI turned out to be 555.
B20 came in with a % positive of 0.4% and an MFI of 531.

For another assay the target is unchanged. Briefly: flow cytometry, F98-EGFRwt cells. The conditions noted are these: remark: other sources report otherwise.
For B1, the % positive was 3.4% and the MFI amounted to 348.
Taken in the same sequence, the figures for B2 were 1.6% and 301.
For the molecule B3, the MFI turned out to be 371.
Molecule B4 showed a % positive of 1.8% and an MFI of 189.
Taken in the same sequence, the figures for B5 were 12.6% and 1070.
Consider B6, for which the % positive worked out at 2.3% and the MFI turned out to be 298.
On the same counts, the results for B7 are 1.7% and 187.
Taken in the same sequence, the figures for B8 were 1.5% and 185.
Taken in the same sequence, the figures for B9 were 1.6% and 185.
For B10, the % positive came out at 1.6% and the MFI is 187.
As for B11, the % positive came out at 1.6% and the MFI turned out to be 168.
In turn, B12 showed an MFI of 185.
In the case of B13, the % positive turned out to be 1.3% and the MFI stood at 185.
Taken in the same sequence, the figures for B14 were 1.3% and 184.
On the same counts, the results for B15 are 1.3% and 185.
In turn, B16 returned a % positive of 1.9% and an MFI of 188.
For the molecule B17, the % positive was 1.7% and the MFI worked out at 280.
On the same counts, the results for B18 are 1.6% and 187.
The molecule B19 yielded a % positive of 1.3% and an MFI of 184.
On to B20, for which the % positive was 1.3% and the MFI was 185.
